# Reference: publication PMC4927284
# Target: mutant (M97S, F110S) EndoBAR (endophilin Bin–Amphiphysin–Rvs domain of mouse endophilinA1) (mouse)
# Test: cross-linking
substance,measurement,value
"mutant (M97S, F110S) EndoBAR (endophilin Bin–Amphiphysin–Rvs domain of mouse endophilinA1) (domain or fragment)",stoichiometry N,2
